Measured values reported in article PMC9939298.

B1: AmUGT13 (Astragalus mongholicus) (protein)
chain: MEREAENRPLKLYFLPFLAAGHMIPLCDIAMLFASRGQDVTVITTPSNAETLLKRKSNNHLHIHTVDIPSDSPQIENITSATNIDSAISVYTAAMLLRQPVEQFLRENPPDCIVADFMYQWVSEIANTLQIPRLAFNGFPLFAVCAMNSFSAHPELFSGSVSEPFNLPDLPHPITMHARSPEGIFRFYEALLKMEVESHGLIVNSFVEIESEYVEHYERTTGHKAWHLGPASLVHASNQQKSERGHISVVSENDCVSWLNSKQPNSVVYISFGSTCRFSDNQLYEIAAGVEASGHPFIWVVLEKLEEKGSKGWLPEGFEERMKEKGMIIRGWAPQVLILDHPAIGGFLTHCGWNSVVEGVSAGVPMMTWPVQADQFYNEKLITEVQGNGVEVGAVEWGVSGYGERKIVISREKIEKAVRRVMDGGDEAEEIRRRARQLAVKAKEAVREGGSSHRNLRELIRDLKLLRDSRSAN
B2: AmUGT7 (Astragalus mongholicus) (protein)
chain: MESQQSHEQLNVTFLPYPTPGHMIPMIDTARLFAKHGATVTIITTHANASTFQKHIDSDISLGYPIKTQLIQFPAAQVGLPDGVENVKDGSSLELLGKISQGIFLLQGQIELLFQHLQPDCIVTDMMYPWTVESAAKLGIPRLHYYSTSYFSNCASYFVRKYRPHDSLDSDDQKFTVPCLPISIEMTPLQLPEWIRTKNPSTGGFFEAMYESEKNSYGTLYNSFHELESDYEQLNKTTMGIKSWSVGPVSAWANKDDEKKANRGHMGESGKELEWLNWLNSKQNDSVLYVSFGSLTRLPNAQLLEIAHGLEISGHNFIWVIRKNDRDEDGDNFLQEFEQRMKESKKGYIIWNWAPQLLILDQPAVGGIVTHCGWNSILESINAGLPMIAWPMFAEQFYNERLLVDVLKIGVPVGVKENKYWFNIGEETLVRREEIMKAVVLLMGSSQESKEMRLKAKKLADASKRTIEEGGHSYNNLLQLIDELKSLKISRELDKSRLDN

Legend:
purified protein [1] = substrate: O=c1ccn([C@@H]2O[C@H](CO[P@@](=O)(O)O[P@@](=O)(O)O[C@H]3O[C@H](CO)[C@@H](O)[C@H](O)[C@H]3O)[C@@H](O)[C@H]2O)c(=O)[nH]1; assay: purified protein; settings: details in supplement Table S2
purified protein [2] = substrate: O=c1ccn([C@@H]2O[C@H](COP(=O)(O)OP(=O)(O)O[C@H]3OC[C@@H](O)[C@H](O)[C@H]3O)[C@@H](O)[C@H]2O)c(=O)[nH]1; assay: purified protein; settings: acceptor astragaloside III (5); details in supplement Table S2

Protein	Km (purified protein [1]; acceptor astragaloside III (5))	Km (purified protein [2])	Km (purified protein [1]; acceptor cycloastragenol-3-O-β-D-xyloside (2))
B1	414.7 µmol/L	479.6 µmol/L	
B2			74.8 µmol/L
